# Data as given in paper PMC9482650, “Quantitative fragmentomics allow affinity mapping of interactomes” (Nature Communications, 2022).
# Biological target: T1, APBA2_1, Q99767
# T1 sequence (Q99767 563-664, limits assumed, looked up): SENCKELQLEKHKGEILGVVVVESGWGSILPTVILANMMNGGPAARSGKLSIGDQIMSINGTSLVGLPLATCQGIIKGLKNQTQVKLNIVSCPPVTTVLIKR
# Assay: holdup assay
# Set-up: key: below the threshold = too weak to quantify, mostly under pKd 3.1 to 4
# Conditions: plain residues with an end cap or a label only (N-terminal biotin on a linker: ado-ado)
row,Binder,pKd
1,"VYPNAKVELV [PDLIM4_iso2, P50479;P50479-1]",below the threshold
2,"LPAHHNATRL [SLC34A1, Q06495;Q06495-1]",below the threshold

# Biological target: T2, APBA3_1, O96018
# T2 sequence (O96018 389-490, limits assumed, looked up): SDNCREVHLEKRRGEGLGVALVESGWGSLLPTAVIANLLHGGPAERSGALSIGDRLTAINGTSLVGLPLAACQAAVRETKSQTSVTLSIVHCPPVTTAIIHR
# Assay: holdup assay
# Set-up: key: below the threshold = too weak to quantify, mostly under pKd 3.1 to 4
# Conditions: plain residues with an end cap or a label only (N-terminal biotin on a linker: ado-ado)
row,Binder,pKd
1,"VYPNAKVELV [PDLIM4_iso2, P50479;P50479-1]",below the threshold
2,"LPAHHNATRL [SLC34A1, Q06495;Q06495-1]",below the threshold

# Biological target: DLG1_1, Q12959
# Assay: holdup assay
# Set-up: key: below the threshold = too weak to quantify, mostly under pKd 3.1 to 4
# Conditions: plain residues with an end cap or a label only (N-terminal biotin on a linker: ado-ado)
row,Binder,pKd
1,"VYPNAKVELV [PDLIM4_iso2, P50479;P50479-1]",below the threshold
2,"LPAHHNATRL [SLC34A1, Q06495;Q06495-1]",below the threshold

# Biological target: DLG4_1, P78352
# Sequence (P78352 62-152): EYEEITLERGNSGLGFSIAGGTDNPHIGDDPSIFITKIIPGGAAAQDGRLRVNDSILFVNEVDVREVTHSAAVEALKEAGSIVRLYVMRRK
# Assay: holdup assay
# Set-up: key: below the threshold = too weak to quantify, mostly under pKd 3.1 to 4
# Conditions: plain residues with an end cap or a label only (N-terminal biotin on a linker: ado-ado)
row,Binder,pKd
1,"VYPNAKVELV [PDLIM4_iso2, P50479;P50479-1]",below the threshold

# Biological target: DLG5_1, Q8TDM6
# Sequence (Q8TDM6 617-713): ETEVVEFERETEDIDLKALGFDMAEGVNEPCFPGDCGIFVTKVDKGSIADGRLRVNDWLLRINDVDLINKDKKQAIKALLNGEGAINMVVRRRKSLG
# Assay: holdup assay
# Set-up: key: below the threshold = too weak to quantify, mostly under pKd 3.1 to 4
# Conditions: plain residues with an end cap or a label only (N-terminal biotin on a linker: ado-ado)
row,Binder,pKd
1,"VYPNAKVELV [PDLIM4_iso2, P50479;P50479-1]",below the threshold
2,"LPAHHNATRL [SLC34A1, Q06495;Q06495-1]",below the threshold

# Biological target: FRMPD2_2, Q68DX3
# Sequence (Q68DX3 944-1038): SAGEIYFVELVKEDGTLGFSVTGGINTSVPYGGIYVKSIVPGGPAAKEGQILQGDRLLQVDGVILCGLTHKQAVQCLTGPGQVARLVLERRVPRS
# Assay: holdup assay
# Set-up: key: below the threshold = too weak to quantify, mostly under pKd 3.1 to 4
# Conditions: plain residues with an end cap or a label only (N-terminal biotin on a linker: ado-ado)
row,Binder,pKd
1,"VYPNAKVELV [PDLIM4_iso2, P50479;P50479-1]",below the threshold
2,"LPAHHNATRL [SLC34A1, Q06495;Q06495-1]",below the threshold

# Biological target: T3, GRIP1_7, Q9Y3R0
# T3 sequence (Q9Y3R0 999-1096, limits assumed, looked up): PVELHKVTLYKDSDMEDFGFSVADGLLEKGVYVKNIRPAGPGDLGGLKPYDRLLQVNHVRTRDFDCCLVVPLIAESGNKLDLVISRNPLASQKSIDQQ
# Assay: holdup assay
# Set-up: key: below the threshold = too weak to quantify, mostly under pKd 3.1 to 4
# Conditions: plain residues with an end cap or a label only (N-terminal biotin on a linker: ado-ado)
row,Binder,pKd
1,"VYPNAKVELV [PDLIM4_iso2, P50479;P50479-1]",below the threshold
2,"LPAHHNATRL [SLC34A1, Q06495;Q06495-1]",below the threshold

# Biological target: GRIP2_4, Q9C0E4
# Sequence (Q9C0E4 446-548): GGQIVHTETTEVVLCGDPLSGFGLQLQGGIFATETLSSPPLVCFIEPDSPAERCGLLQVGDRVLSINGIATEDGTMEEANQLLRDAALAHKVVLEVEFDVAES
# Assay: holdup assay
# Set-up: key: below the threshold = too weak to quantify, mostly under pKd 3.1 to 4
# Conditions: plain residues with an end cap or a label only (N-terminal biotin on a linker: ado-ado)
row,Binder,pKd
1,"VYPNAKVELV [PDLIM4_iso2, P50479;P50479-1]",below the threshold
2,"LPAHHNATRL [SLC34A1, Q06495;Q06495-1]",below the threshold

# Biological target: GRIP2_5, Q9C0E4
# Sequence (Q9C0E4 544-642): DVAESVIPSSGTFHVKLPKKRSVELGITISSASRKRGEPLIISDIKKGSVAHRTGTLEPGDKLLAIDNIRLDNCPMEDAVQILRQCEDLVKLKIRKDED
# Assay: holdup assay
# Set-up: key: below the threshold = too weak to quantify, mostly under pKd 3.1 to 4
# Conditions: plain residues with an end cap or a label only (N-terminal biotin on a linker: ado-ado)
row,Binder,pKd
1,"VYPNAKVELV [PDLIM4_iso2, P50479;P50479-1]",below the threshold
2,"LPAHHNATRL [SLC34A1, Q06495;Q06495-1]",below the threshold

# Biological target: GRIP2_6, Q9C0E4
# Sequence (Q9C0E4 648-740): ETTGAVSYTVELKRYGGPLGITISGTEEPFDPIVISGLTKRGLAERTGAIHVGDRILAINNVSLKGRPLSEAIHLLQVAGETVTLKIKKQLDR
# Assay: holdup assay
# Set-up: key: below the threshold = too weak to quantify, mostly under pKd 3.1 to 4
# Conditions: plain residues with an end cap or a label only (N-terminal biotin on a linker: ado-ado)
row,Binder,pKd
1,"VYPNAKVELV [PDLIM4_iso2, P50479;P50479-1]",below the threshold
2,"LPAHHNATRL [SLC34A1, Q06495;Q06495-1]",below the threshold

# Biological target: T4, HTRA4, P83105
# T4 sequence (P83105 378-476, limits assumed, looked up): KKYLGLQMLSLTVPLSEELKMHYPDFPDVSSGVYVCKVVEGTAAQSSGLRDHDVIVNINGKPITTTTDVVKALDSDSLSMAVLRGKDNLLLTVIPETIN
# Assay: holdup assay
# Set-up: key: below the threshold = too weak to quantify, mostly under pKd 3.1 to 4
# Conditions: plain residues with an end cap or a label only (N-terminal biotin on a linker: ado-ado)
row,Binder,pKd
1,"VYPNAKVELV [PDLIM4_iso2, P50479;P50479-1]",4.55
2,"LPAHHNATRL [SLC34A1, Q06495;Q06495-1]",3.96

# Biological target: Inadl_2, Q8NI35
# Sequence (Q8NI35 238-335): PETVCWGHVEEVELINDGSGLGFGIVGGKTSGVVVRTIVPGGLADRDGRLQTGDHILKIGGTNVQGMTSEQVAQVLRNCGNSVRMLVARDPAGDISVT
# Assay: holdup assay
# Set-up: key: below the threshold = too weak to quantify, mostly under pKd 3.1 to 4
# Conditions: plain residues with an end cap or a label only (N-terminal biotin on a linker: ado-ado)
row,Binder,pKd
1,"VYPNAKVELV [PDLIM4_iso2, P50479;P50479-1]",below the threshold
2,"LPAHHNATRL [SLC34A1, Q06495;Q06495-1]",below the threshold

# Biological target: Inadl_3, Q8NI35
# Sequence (Q8NI35 359-469): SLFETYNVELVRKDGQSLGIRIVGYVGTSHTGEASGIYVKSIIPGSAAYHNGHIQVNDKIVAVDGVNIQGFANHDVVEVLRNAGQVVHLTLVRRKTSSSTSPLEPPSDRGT
# Assay: holdup assay
# Set-up: key: below the threshold = too weak to quantify, mostly under pKd 3.1 to 4
# Conditions: plain residues with an end cap or a label only (N-terminal biotin on a linker: ado-ado)
row,Binder,pKd
1,"LPAHHNATRL [SLC34A1, Q06495;Q06495-1]",below the threshold

# Biological target: Inadl_5, Q8NI35
# Sequence (Q8NI35 673-780): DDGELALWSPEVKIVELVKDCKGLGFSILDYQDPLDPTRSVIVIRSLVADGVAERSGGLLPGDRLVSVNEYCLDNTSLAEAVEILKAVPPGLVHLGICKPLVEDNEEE
# Assay: holdup assay
# Set-up: key: below the threshold = too weak to quantify, mostly under pKd 3.1 to 4
# Conditions: plain residues with an end cap or a label only (N-terminal biotin on a linker: ado-ado)
row,Binder,pKd
1,"VYPNAKVELV [PDLIM4_iso2, P50479;P50479-1]",below the threshold
2,"LPAHHNATRL [SLC34A1, Q06495;Q06495-1]",below the threshold

# Biological target: LIMK2, P53671
# Sequence (P53671 143-248): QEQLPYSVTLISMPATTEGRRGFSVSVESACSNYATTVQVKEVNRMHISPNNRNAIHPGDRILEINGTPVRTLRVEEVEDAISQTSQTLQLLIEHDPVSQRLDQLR
# Assay: holdup assay
# Set-up: key: below the threshold = too weak to quantify, mostly under pKd 3.1 to 4
# Conditions: plain residues with an end cap or a label only (N-terminal biotin on a linker: ado-ado)
row,Binder,pKd
1,"VYPNAKVELV [PDLIM4_iso2, P50479;P50479-1]",below the threshold
2,"LPAHHNATRL [SLC34A1, Q06495;Q06495-1]",below the threshold

# Biological target: T5, LNX2_3, Q8N448
# T5 sequence (Q8N448 463-564, limits assumed, looked up): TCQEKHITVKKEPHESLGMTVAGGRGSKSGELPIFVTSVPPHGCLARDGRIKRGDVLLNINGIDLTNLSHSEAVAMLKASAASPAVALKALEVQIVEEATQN
# Assay: holdup assay
# Set-up: key: below the threshold = too weak to quantify, mostly under pKd 3.1 to 4
# Conditions: plain residues with an end cap or a label only (N-terminal biotin on a linker: ado-ado)
row,Binder,pKd
1,"VYPNAKVELV [PDLIM4_iso2, P50479;P50479-1]",below the threshold
2,"LPAHHNATRL [SLC34A1, Q06495;Q06495-1]",below the threshold

# Biological target: T6, MPP6, Q9NZW5
# T6 sequence (Q9NZW5 125-219, limits assumed, looked up): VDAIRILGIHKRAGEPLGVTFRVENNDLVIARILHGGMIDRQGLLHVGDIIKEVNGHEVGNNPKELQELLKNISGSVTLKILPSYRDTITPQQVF
# Assay: holdup assay
# Set-up: key: below the threshold = too weak to quantify, mostly under pKd 3.1 to 4
# Conditions: plain residues with an end cap or a label only (N-terminal biotin on a linker: ado-ado)
row,Binder,pKd
1,"VYPNAKVELV [PDLIM4_iso2, P50479;P50479-1]",below the threshold
2,"LPAHHNATRL [SLC34A1, Q06495;Q06495-1]",below the threshold

# Biological target: PDLIM1, O00151
# Sequence (O00151 1-87): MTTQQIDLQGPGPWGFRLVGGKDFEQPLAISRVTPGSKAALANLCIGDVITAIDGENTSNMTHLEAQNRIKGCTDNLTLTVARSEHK
# Assay: holdup assay
# Set-up: key: below the threshold = too weak to quantify, mostly under pKd 3.1 to 4
# Conditions: plain residues with an end cap or a label only (N-terminal biotin on a linker: ado-ado)
row,Binder,pKd
1,"VYPNAKVELV [PDLIM4_iso2, P50479;P50479-1]",below the threshold
2,"LPAHHNATRL [SLC34A1, Q06495;Q06495-1]",below the threshold

# Biological target: T7, PDZD2_2, O15018
# T7 sequence (O15018 329-429, limits assumed, looked up): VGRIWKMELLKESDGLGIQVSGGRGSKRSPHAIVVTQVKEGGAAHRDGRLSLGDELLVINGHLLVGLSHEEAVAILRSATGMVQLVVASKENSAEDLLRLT
# Assay: holdup assay
# Set-up: key: below the threshold = too weak to quantify, mostly under pKd 3.1 to 4
# Conditions: plain residues with an end cap or a label only (N-terminal biotin on a linker: ado-ado)
row,Binder,pKd
1,"VYPNAKVELV [PDLIM4_iso2, P50479;P50479-1]",below the threshold
2,"LPAHHNATRL [SLC34A1, Q06495;Q06495-1]",below the threshold

# Biological target: T8, RADIL, Q96JH8
# T8 sequence (Q96JH8 971-1071, limits assumed, looked up): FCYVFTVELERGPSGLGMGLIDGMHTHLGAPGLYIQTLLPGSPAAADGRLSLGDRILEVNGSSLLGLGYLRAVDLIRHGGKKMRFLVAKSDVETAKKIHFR
# Assay: holdup assay
# Set-up: key: below the threshold = too weak to quantify, mostly under pKd 3.1 to 4
# Conditions: plain residues with an end cap or a label only (N-terminal biotin on a linker: ado-ado)
row,Binder,pKd
1,"VYPNAKVELV [PDLIM4_iso2, P50479;P50479-1]",5.24
2,"LPAHHNATRL [SLC34A1, Q06495;Q06495-1]",below the threshold

# Biological target: T9, RAPGEF6, Q8TEU7
# T9 sequence (Q8TEU7 525-625, limits assumed, looked up): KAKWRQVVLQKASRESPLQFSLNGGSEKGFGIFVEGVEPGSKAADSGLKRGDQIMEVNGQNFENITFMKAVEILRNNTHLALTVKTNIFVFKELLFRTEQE
# Assay: holdup assay
# Set-up: key: below the threshold = too weak to quantify, mostly under pKd 3.1 to 4
# Conditions: plain residues with an end cap or a label only (N-terminal biotin on a linker: ado-ado)
row,Binder,pKd
1,"VYPNAKVELV [PDLIM4_iso2, P50479;P50479-1]",below the threshold
2,"LPAHHNATRL [SLC34A1, Q06495;Q06495-1]",below the threshold

# Biological target: T10, SNTB1, Q13884
# T10 sequence (Q13884 107-205, limits assumed, looked up): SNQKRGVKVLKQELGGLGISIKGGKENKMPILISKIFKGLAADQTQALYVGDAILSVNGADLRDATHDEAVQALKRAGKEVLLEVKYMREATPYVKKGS
# Assay: holdup assay
# Set-up: key: below the threshold = too weak to quantify, mostly under pKd 3.1 to 4
# Conditions: plain residues with an end cap or a label only (N-terminal biotin on a linker: ado-ado)
row,Binder,pKd
1,"VYPNAKVELV [PDLIM4_iso2, P50479;P50479-1]",below the threshold
2,"LPAHHNATRL [SLC34A1, Q06495;Q06495-1]",below the threshold

# Biological target: T11, SNTG1, Q9NSN8
# T11 sequence (Q9NSN8 52-150, limits assumed, looked up): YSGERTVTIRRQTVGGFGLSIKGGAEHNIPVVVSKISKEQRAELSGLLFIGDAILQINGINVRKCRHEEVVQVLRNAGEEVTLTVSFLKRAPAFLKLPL
# Assay: holdup assay
# Set-up: key: below the threshold = too weak to quantify, mostly under pKd 3.1 to 4
# Conditions: plain residues with an end cap or a label only (N-terminal biotin on a linker: ado-ado)
row,Binder,pKd
1,"VYPNAKVELV [PDLIM4_iso2, P50479;P50479-1]",below the threshold
2,"LPAHHNATRL [SLC34A1, Q06495;Q06495-1]",below the threshold

# Biological target: T12, TIAM2, Q8IVF5
# T12 sequence (Q8IVF5 885-986, limits assumed, looked up): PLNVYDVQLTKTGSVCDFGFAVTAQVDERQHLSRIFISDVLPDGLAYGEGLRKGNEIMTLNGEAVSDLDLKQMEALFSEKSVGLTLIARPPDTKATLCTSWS
# Assay: holdup assay
# Set-up: key: below the threshold = too weak to quantify, mostly under pKd 3.1 to 4
# Conditions: plain residues with an end cap or a label only (N-terminal biotin on a linker: ado-ado)
row,Binder,pKd
1,"VYPNAKVELV [PDLIM4_iso2, P50479;P50479-1]",below the threshold
2,"LPAHHNATRL [SLC34A1, Q06495;Q06495-1]",below the threshold

# Biological target: TJP1_3, Q07157
# Sequence (Q07157 416-512): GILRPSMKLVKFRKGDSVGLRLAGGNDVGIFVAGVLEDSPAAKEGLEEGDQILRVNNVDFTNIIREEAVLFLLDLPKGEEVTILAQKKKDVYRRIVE
# Assay: holdup assay
# Set-up: key: below the threshold = too weak to quantify, mostly under pKd 3.1 to 4
# Conditions: plain residues with an end cap or a label only (N-terminal biotin on a linker: ado-ado)
row,Binder,pKd
1,"VYPNAKVELV [PDLIM4_iso2, P50479;P50479-1]",below the threshold
2,"LPAHHNATRL [SLC34A1, Q06495;Q06495-1]",below the threshold
